From the supplement of paper PMC10567573

B1: SFRS1 (parent)
chain: RDIDLKNRRGGPPFAFVEFEDPRD
B2: ALKBH7 (parent)
chain: SVICRSLPEGMGPGESGQPPPAC

Variants of: B1
Assay: protein stability index of a GFP-peptide fusion (GPS, HEK-293T) (PSI 1-6); higher = more stable
Conditions: c terminus: a fixed tail appended
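Also: lentivirally expressed fusions sorted by FACS into six bins by GFP to DsRed ratio, PSI derived from sequencing read proportions per bin multiplied by bin number.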

Protein stability index of substitutions, site by site:
R1: C 4.2 | A 4.38

Variants of: B2
Assay: as above
Conditions: c terminus: native

Protein stability index, by site and new letter:
G17: Y 1.09 | K 2.94 | R 1.38 | A 2.39 | N 1.95 | L 2.14 | D 2.36 | Q 2.11 | E 2.45 | C 1.73 | H 1.4 | S 1.71 | I 2.46 | T 1.61
A22: V 3.77 | H 4.75 | G 5.1 | C 4.31 | W 4.77 | E 4.63 | N 5.43 | F 5.01 | R 5 | S 3.69 | K 5.64 | T 4.77 | L 4.3 | D 5.53 | Q 4.92 | Y 4.68 | M 4.74 | I 3.19
L7: I 2.36 | D 2.98 | V 1.99 | T 3.06 | H 1.63 | A 2.32 | M 1.67 | S 2.14 | Q 2.67 | E 2.16 | C 2.05 | F 2.35 | R 1.85 | Y 1.67
Q18: K 2.16 | R 2 | L 2.07 | C 1.66 | S 2.36 | Y 3.38 | I 2.56 | H 2.38 | E 2.15 | F 3.03 | D 2.05 | N 2.05 | M 1.85 | A 2.15
G10: R 1.76 | F 1.89 | S 3.04 | I 1.95 | Y 1.91 | C 1.95 | T 1.03 | L 1.51 | D 2.29 | P 1.88 | M 3.27 | K 1.91 | E 1.91 | N 1.5 | A 2.59
P8: Q 2.53 | S 2.32 | W 2.01 | A 2.08 | N 2.48 | T 1.67 | M 2.93 | H 2.94 | I 1.65 | G 2.19 | V 1.42 | E 2.46
S6: H 2.71 | M 1.68 | D 2.54 | E 3.01 | Q 2.08 | C 2.03 | R 1.95 | A 2.01 | P 2.05 | T 2.07 | I 1.43 | Y 2.25 | K 2.28 | L 1.6
I3: F 1.66 | L 1.6 | Q 1.49 | P 2.4 | R 2.64 | T 1.92 | M 1.43 | Y 1.62 | S 2.51 | V 1.84 | K 1.65 | N 2.23 | H 3.61 | E 2.88 | A 2.19
E9: Q 1.83 | L 1.23 | Y 1.85 | N 1.93 | T 1.7 | K 1.7 | W 1.68 | S 1.5 | R 1.91 | H 1.77 | G 2.54 | F 1.86 | I 1.99 | M 1.55 | C 1.02 | D 2.97
P13: F 1.55 | Q 2.38 | L 1.39 | W 1.57 | H 2.18 | R 3.33 | Y 1.74 | G 1.58 | C 1.92 | S 2.35 | V 1.4 | M 1.55 | A 1.73 | I 1.75 | T 1.81 | K 2.16 | E 1.92 | N 2.4 | D 2.4
C23: M 5.48 | I 5.17 | V 4.54 | F 4.57 | D 4.63 | Q 3.8 | E 4.31 | T 4.52 | N 5.35 | Y 4.45 | K 4.35 | S 2.99 | L 4.69 | H 5.02
